Assays:
Pex5p^2D cells = assay: Fluorescence microscopy, peroxisomal import of GFP-tagged proteins in Pex5p^2D-expressing cells; assay type: cell-based, S. cerevisiae; parameters: key to import phenotype category: showed a reduced peroxisomal import and constitute category 1; category 2 characterized by no peroxisomal import; without a noticeable effect on import in Pex5p^2D cells (category 3); settings: GFP-tagged protein, Pex3p-mCherry marker, SD medium, 2% glucose; for import phenotype category: Pex5p^2D-expressing cells, assessed manually
Excerpt: Query strains were constructed on the basis of an automated mating compatible strain. The query strains contained a peroxisomal marker (Pex3p-mCherry::HIS), a deletion of PEX5 (pex5Δ::NAT) and a plasmid expressing WT or mutant PEX5 (PEX5^WT, PEX5^2D or PEX5^2A). Using an automated mating method ([Cohen and Schuldiner 2011]; [Tong and Boone 2006]), the query strains were crossed with a NOP1pr-N′-GFP-peroxi library ([Dahan et al. 2017]). The NOP1pr-N′-GFP-peroxisomal library is a collection of ∼90 strains containing all the known peroxisomal proteins together with potential peroxisomal proteins and controls, genomically tagged with GFP at their N-terminus and expressed under the generic constitutive SpNOP1 promoter. To perform the manipulations in high-density format we used a RoToR bench top colony arrayer (Singer Instruments). In short: mating was performed on rich medium plates, and selection for diploid cells was performed on SD(MSG)-HIS-URA plates containing Geneticin (200 μg ml^−1) and Nourseothricin (200 μg ml^−1). Sporulation was induced by transferring cells to nitrogen starvation media plates for 7 days. Haploid cells containing the desired mutations were selected by transferring cells to SD-URA-HIS-LYS-ARG-LEU plates containing Geneticin and Nourseothricin (same concentrations as above), alongside the toxic amino acid derivatives Canavanine and Thialysine (Sigma-Aldrich) to select against remaining diploids and select for spores with an α mating type. A similar method was used to generate control, pex5Δ, and pex8Δ strains expressing GFP-Mdh3p (Supplementary Figure 4D), in which the query strain contained a peroxisomal marker (Pex3p-mCherry::NAT) and URA3::GFP-Mdh3p. This query strain was crossed with three strains from the mini peroxisomal deletion library ([Gabay-Maskit et al. 2020]): a control (no deletion), pex5Δ, and pex8Δ strain, all of which contain KAN (Geneticin) resistance.
The yeast collections were visualized using an automated microscopy setup as described previously ([Breker et al. 2013]). In short: cells were transferred from agar plates into 384-well polystyrene plates (Greiner) for growth in liquid media using the RoToR arrayer robot. Liquid cultures were grown in a LiCONiC incubator, overnight at 30 °C in SD-URA-HIS medium. A JANUS liquid handler (PerkinElmer) connected to the incubator was used to dilute the strains to an OD600 of ∼0.2 into plates containing SD medium (6.7 g l^−1 yeast nitrogen base and 2% glucose) supplemented with complete amino acids. Plates were incubated at 30 °C for 4 h. The cultures in the plates were then transferred by the liquid handler into glass-bottom 384-well microscope plates (Matrical Bioscience) coated with Concanavalin A (Sigma-Aldrich). After 20 min, cells were washed three times with SD-Riboflavin complete medium to remove non-adherent cells and to obtain a cell monolayer. The plates were then transferred to the ScanR automated inverted fluorescent microscope system (Olympus) using a robotic swap arm (Hamilton). Images of cells in the 384-well plates were recorded in the same liquid as the washing step at 24 °C using a 60× air lens (NA 0.9) and with an ORCA-ER charge-coupled device camera (Hamamatsu). Images were acquired in two channels: GFP (excitation filter 490/20 nm, emission filter 535/50 nm) and mCherry (excitation filter 572/35 nm, emission filter 632/60 nm). All images were taken at a single focal plane. The same protocol was used to visualize fluorescence signals in GFP-Mdh3p-expressing control, pex5Δ, and pex8Δ strains (Supplementary Figure 4D).

[1] = tested on: GFP-SKL import in pex5Δ yeast cells; assay: Fluorescence microscopy, import of GFP-SKL in cells expressing Pex5p variants; assay type: cell-based, S. cerevisiae; settings: pex5Δ cells expressing plasmid-encoded Pex5p variant and GFP-SKL; grown in oleate
Experimental: Cells expressing distinct Pex5p variants (wildtype, Pex5p^2A or Pex5p^2D) and GFP-SKL were grown overnight in 50 ml YNO medium supplemented with 0.1% (w/v) glucose to an OD600 of 1–1.5. Aliquots of 5.4 ml were taken and formaldehyde was added to a final concentration of 3.7% (v/v). Samples were incubated for 10 min at RT with slight agitation. Cells were collected by centrifugation (5 min at 2000 g), resuspended in 1 ml of 0.1 M potassium phosphate buffer (pH 6.8) containing 3.7% (v/v) formaldehyde and incubated for 1 h at RT with slight agitation. Following centrifugation (30 s at 16,000 g), cells were resuspended in 1 ml of 0.1 M potassium phosphate buffer (pH 6.8) containing 10 mM ethanolamine and incubated for further 10 min at RT. Subsequently, cells were washed twice with phosphate-buffered saline (PBS) and resuspended in 10–20 µl of PBS containing 0.1% (v/v) Triton X-100. Fixed cells were analyzed within 48 h after preparation.
Fluorescence microscopy was performed using a Zeiss Axio Observer.Z1 microscope equipped with an alpha Plan-Aprochromat 100× objective and an AxioCam MR R3. GFP signal was visualized with a 38 HE filterset from Zeiss. Images were processed using Adobe Photoshop CS5 (version 12.0.4 ×64; Adobe Systems Incorporated). To document the structural integrity of cells, bright field images were acquired, adjusted in a way that only the cell boundaries were visible and subsequently added into the blue channel in Photoshop as reported before ([Motley and Hettema 2007]).

Molecule	import phenotype category (Pex5p^2D cells)	also measured
Pex8p: essential component of the import machinery for peroxisomal matrix proteins	category 1	–
Idp3p (protein, UniProt P53982 1-420, looked up) Isocitrate dehydrogenase …: MSKIKVVHPIVEMDGDEQTRVIWKLIKEKLILPYLDVDLKYYDLSIQERDRTNDQVTKDSSYATLKYGVAVKCATITPDEARMKEFNLKEMWKSPNGTIRNILGGTVFREPIIIPKIPRLVPHWEKPIIIGRHAFGDQYRATDIKIKKAGKLRLQFSSDDGKENIDLKVYEFPKSGGIAMAMFNTNDSIKGFAKASFELALKRKLPLFFTTKNTILKNYDNQFKQIFDNLFDKEYKEKFQALKITYEHRLIDDMVAQMLKSKGGFIIAMKNYDGDVQSDIVAQGFGSLGLMTSILITPDGKTFESEAAHGTVTRHFRKHQRGEETSTNSIASIFAWTRAIIQRGKLDNTDDVIKFGNLLEKATLDTVQVGGKMTKDLALMLGKTNRSSYVTTEEFIDEVAKRLQNMMLSSNEDKKGMCKL	category 2	–
Mls1p (protein, UniProt P30952 1-554, looked up) Malate synthase 1: MVKVSLDNVKLLVDVDKEPFFKPSSTTVGDILTKDALEFIVLLHRTFNNKRKQLLENRQVVQKKLDSGSYHLDFLPETANIRNDPTWQGPILAPGLINRSTEITGPPLRNMLINALNAPVNTYMTDFEDSASPTWNNMVYGQVNLYDAIRNQIDFDTPRKSYKLNGNVANLPTIIVRPRGWHMVEKHLYVDDEPISASIFDFGLYFYHNAKELIKLGKGPYFYLPKMEHHLEAKLWNDVFCVAQDYIGIPRGTIRATVLIETLPAAFQMEEIIYQLRQHSSGLNCGRWDYIFSTIKRLRNDPNHILPNRNQVTMTSPFMDAYVKRLINTCHRRGVHAMGGMAAQIPIKDDPAANEKAMTKVRNDKIRELTNGHDGSWVAHPALAPICNEVFINMGTPNQIYFIPENVVTAANLLETKIPNGEITTEGIVQNLDIGLQYMEAWLRGSGCVPINNLMEDAATAEVSRCQLYQWVKHGVTLKDTGEKVTPELTEKILKEQVERLSKASPLGDKNKFALAAKYFLPEIRGEKFSEFLTTLLYDEIVSTKATPTDLSKL	category 2	–
Pnc1p: nicotinamidase, imported by piggy-backing on Gpd1p (protein, UniProt P53184 1-216, looked up) Nicotinamidase: MKTLIVVDMQNDFISPLGSLTVPKGEELINPISDLMQDADRDWHRIVVTRDWHPSRHISFAKNHKDKEPYSTYTYHSPRPGDDSTQEGILWPVHCVKNTWGSQLVDQIMDQVVTKHIKIVDKGFLTDREYYSAFHDIWNFHKTDMNKYLEKHHTDEVYIVGVALEYCVKATAISAAELGYKTTVLLDYTRPISDDPEVINKVKEELKAHNINVVDK	–	subcellular distribution / peroxisomal import (Pex5p^2D cells; Pex5p^2D cells): no differences in localization
Str3p: peroxisomal cystathionine beta-lyase (protein, UniProt P53101 1-465, looked up) Cystathionine beta-lyase: MPIKRLDTVVVNTGSQNDQHSASVPPVYLSTTFKVDLNNEDAQNYDYSRSGNPTRSVLQHQIGKLYRVPQENVLAVSSGMTALDVILRGLVLLNGTDNHTPTIIAGDDLYGGTQRLLNFFKQQSHAVSVHVDTSDFEKFKTVFQSLDKVDCVLLESPTNPLCKVVDIPRILRFVKCISPDTTVVVDNTMMSGLNCNPLQLNPGCDVVYESATKYLNGHHDLMGGVIISKTPEIASKLYFVINSTGAGLSPMDSWLLVRGLKTLGVRLYQQQRNAMILAHWLENSCGFKPTRTNKATKTRFVGLRSNPDFKLHKSFNNGPGAVLSFETGSFEHSKRLVSSKKLSIWAVTVSFGCVNSLLSMPCKMSHASIDPELRKERDFPEDLVRLCCGIENIVDLKKDLLAAMVDADIIEVRENGKYLFNKLNKNLAVNTTIDDLHKPLSIYEEFYNQDLIRKDSELNIKSSKL	category 3	–
Pex5p^S507D (protein, UniProt P35056 1-612, looked up, variant S507D) Peroxisomal targeting signal …: MDVGSCSVGNNPLAQLHKHTQQNKSLQFNQKNNGRLNESPLQGTNKPGISEAFISNVNAISQENMANMQRFINGEPLIDDKRRMEIGPSSGRLPPFSNVHSLQTSANPTQIKGVNDISHWSQEFQGSNSIQNRNADTGNSEKAWQRGSTTASSRFQYPNTMMNNYAYASMNSLSGSRLQSPAFMNQQQSGRSKEGVNEQEQQPWTDQFEKLEKEVSENLDINDEIEKEENVSEVEQNKPETVEKEEGVYGDQYQSDFQEVWDSIHKDAEEVLPSELVNDDLNLGEDYLKYLGGRVNGNIEYAFQSNNEYFNNPNAYKIGCLLMENGAKLSEAALAFEAAVKEKPDHVDAWLRLGLVQTQNEKELNGISALEECLKLDPKNLEAMKTLAISYINEGYDMSAFTMLDKWAETKYPEIWSRIKQQDDKFQKEKGFTHIDMNAHITKQFLQLANNLSTIDPEIQLCLGLLFYTKDDFDKTIDCFESALRVNPNDELMWNRLGASLANSNRDEEAIQAYHRALQLKPSFVRARYNLAVSSMNIGCFKEAAGYLLSVLSMHEVNTNNKKGDVGSLLNTYNDTVIETLKRVFIAMNRDDLLQEVKPGMDLKRFKGEFSF	–	subcellular distribution of GFP-SKL [1]: wildtype-like distribution of GFP-SKL
Pex5p^S523D (protein, UniProt P35056 1-612, looked up, variant S523D) Peroxisomal targeting signal …: MDVGSCSVGNNPLAQLHKHTQQNKSLQFNQKNNGRLNESPLQGTNKPGISEAFISNVNAISQENMANMQRFINGEPLIDDKRRMEIGPSSGRLPPFSNVHSLQTSANPTQIKGVNDISHWSQEFQGSNSIQNRNADTGNSEKAWQRGSTTASSRFQYPNTMMNNYAYASMNSLSGSRLQSPAFMNQQQSGRSKEGVNEQEQQPWTDQFEKLEKEVSENLDINDEIEKEENVSEVEQNKPETVEKEEGVYGDQYQSDFQEVWDSIHKDAEEVLPSELVNDDLNLGEDYLKYLGGRVNGNIEYAFQSNNEYFNNPNAYKIGCLLMENGAKLSEAALAFEAAVKEKPDHVDAWLRLGLVQTQNEKELNGISALEECLKLDPKNLEAMKTLAISYINEGYDMSAFTMLDKWAETKYPEIWSRIKQQDDKFQKEKGFTHIDMNAHITKQFLQLANNLSTIDPEIQLCLGLLFYTKDDFDKTIDCFESALRVNPNDELMWNRLGASLANSNRSEEAIQAYHRALQLKPDFVRARYNLAVSSMNIGCFKEAAGYLLSVLSMHEVNTNNKKGDVGSLLNTYNDTVIETLKRVFIAMNRDDLLQEVKPGMDLKRFKGEFSF	–	subcellular distribution of GFP-SKL [1]: wildtype-like distribution of GFP-SKL
